test system: Escherichia coli TOP10; experiment: shrunken log2 fold change of peptide-encoding DNA abundance (4.5 h post-induction vs induction); higher = less antimicrobial activity (less host growth inhibition); details: time post-induction: 4.5 h; library: site-saturation at positions 5, 18, 19, 20
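Also: peptides expressed intracellularly from a pBAD plasmid library in pooled LB shake-flask culture, induced with 0.3% L-arabinose, DNA abundance read by NGS, three biological replicates, DESeq2 with apeglm shrinkage.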

**Q.** For RRIRVRPPRLPRPRPRPQNKPRP, which “shrunken log2 fold change” value is on record?
**A.** The value was -0.497.

**Q.** How did the “shrunken log2 fold change” value turn out when RRIRNRPPRLPRPRPRPRKLPRP was run?
**A.** Its value is -0.0702.

**Q.** Which “shrunken log2 fold change” value does the source give for RRIRMRPPRLPRPRPRPKKGPRP here?
**A.** The value was 0.364.

**Q.** For RRIRVRPPRLPRPRPRPHQGPRP, which “shrunken log2 fold change” value is on record?
**A.** Its value is 0.105.

**Q.** RRIRKRPPRLPRPRPRPQINPRP was tested. Which “shrunken log2 fold change” value did it give?
**A.** Its value is -0.159.

**Q.** For RRIRCRPPRLPRPRPRPIRRPRP, which “shrunken log2 fold change” value is on record?
**A.** Its value is 0.119.

**Q.** RRIRIRPPRLPRPRPRPSSDPRP was tested. Which “shrunken log2 fold change” value did it give?
**A.** The value was 0.0499.

**Q.** Which “shrunken log2 fold change” value does the source give for RRIRYRPPRLPRPRPRPHFFPRP here?
**A.** Its value is -0.518.

**Q.** RRIRWRPPRLPRPRPRPIKRPRP was tested. Which “shrunken log2 fold change” value did it give?
**A.** The value was 0.21.

**Q.** With RRIRYRPPRLPRPRPRPSGYPRP as the sequence, how does the “shrunken log2 fold change” value read?
**A.** Its value is -0.714.

**Q.** For RRIRVRPPRLPRPRPRPSGFPRP, which “shrunken log2 fold change” value is on record?
**A.** Its value is -0.131.

**Q.** Which “shrunken log2 fold change” value does the source give for RRIRERPPRLPRPRPRPIYKPRP here?
**A.** Its value is -0.305.

**Q.** How did the “shrunken log2 fold change” value turn out when RRIRHRPPRLPRPRPRPGWLPRP was run?
**A.** Its value is 0.0986.

**Q.** For RRIRIRPPRLPRPRPRPVHAPRP, which “shrunken log2 fold change” value is on record?
**A.** Its value is 0.0769.

**Q.** For RRIRQRPPRLPRPRPRPPMSPRP, which “shrunken log2 fold change” value is on record?
**A.** The value was -0.139.

**Q.** With RRIRIRPPRLPRPRPRPWVYPRP as the sequence, how does the “shrunken log2 fold change” value read?
**A.** Its value is -0.341.

**Q.** For RRIRRRPPRLPRPRPRPRIKPRP, which “shrunken log2 fold change” value is on record?
**A.** Its value is 0.142.

**Q.** RRIRCRPPRLPRPRPRPLLNPRP was tested. Which “shrunken log2 fold change” value did it give?
**A.** Its value is -0.39.

**Q.** RRIRHRPPRLPRPRPRPYMAPRP was tested. Which “shrunken log2 fold change” value did it give?
**A.** Its value is -0.339.

**Q.** With RRIRYRPPRLPRPRPRPHYTPRP as the sequence, how does the “shrunken log2 fold change” value read?
**A.** The value was -0.936.

**Q.** Which “shrunken log2 fold change” value does the source give for RRIRARPPRLPRPRPRPAPQPRP here?
**A.** The value was 0.932.

**Q.** RRIRPRPPRLPRPRPRPQLSPRP was tested. Which “shrunken log2 fold change” value did it give?
**A.** Its value is -0.485.

**Q.** RRIRWRPPRLPRPRPRPITPPRP was tested. Which “shrunken log2 fold change” value did it give?
**A.** Its value is 0.145.

**Q.** Which “shrunken log2 fold change” value does the source give for RRIRQRPPRLPRPRPRPLGQPRP here?
**A.** The value was 0.125.

**Q.** For RRIRCRPPRLPRPRPRPFDMPRP, which “shrunken log2 fold change” value is on record?
**A.** Its value is -0.309.

**Q.** For RRIRSRPPRLPRPRPRPFDTPRP, which “shrunken log2 fold change” value is on record?
**A.** The value was -0.201.

**Q.** With RRIRVRPPRLPRPRPRPFESPRP as the sequence, how does the “shrunken log2 fold change” value read?
**A.** Its value is -0.0298.

**Q.** With RRIRDRPPRLPRPRPRPSKRPRP as the sequence, how does the “shrunken log2 fold change” value read?
**A.** Its value is -0.273.

**Q.** With RRIRWRPPRLPRPRPRPKIDPRP as the sequence, how does the “shrunken log2 fold change” value read?
**A.** Its value is 0.0747.

**Q.** Which “shrunken log2 fold change” value does the source give for RRIRHRPPRLPRPRPRPADNPRP here?
**A.** Its value is -0.306.

**Q.** How did the “shrunken log2 fold change” value turn out when RRIRERPPRLPRPRPRPQPMPRP was run?
**A.** The value was -0.185.

**Q.** How did the “shrunken log2 fold change” value turn out when RRIRARPPRLPRPRPRPFFRPRP was run?
**A.** Its value is 0.126.

**Q.** For RRIRERPPRLPRPRPRPVCNPRP, which “shrunken log2 fold change” value is on record?
**A.** The value was -0.12.

**Q.** Which “shrunken log2 fold change” value does the source give for RRIRLRPPRLPRPRPRPYFTPRP here?
**A.** Its value is -0.468.

**Q.** With RRIRFRPPRLPRPRPRPAEAPRP as the sequence, how does the “shrunken log2 fold change” value read?
**A.** Its value is 0.254.

**Q.** RRIRMRPPRLPRPRPRPDDGPRP was tested. Which “shrunken log2 fold change” value did it give?
**A.** The value was 0.038.

**Q.** With RRIRCRPPRLPRPRPRPEGWPRP as the sequence, how does the “shrunken log2 fold change” value read?
**A.** Its value is 0.855.

**Q.** For RRIRFRPPRLPRPRPRPWFKPRP, which “shrunken log2 fold change” value is on record?
**A.** The value was -0.537.

**Q.** RRIRHRPPRLPRPRPRPWNHPRP was tested. Which “shrunken log2 fold change” value did it give?
**A.** The value was -0.0561.

**Q.** How did the “shrunken log2 fold change” value turn out when RRIRYRPPRLPRPRPRPRDVPRP was run?
**A.** The value was -0.0023.

**Q.** With RRIRPRPPRLPRPRPRPVHRPRP as the sequence, how does the “shrunken log2 fold change” value read?
**A.** The value was 0.0193.

**Q.** RRIRMRPPRLPRPRPRPCIRPRP was tested. Which “shrunken log2 fold change” value did it give?
**A.** Its value is -0.122.

**Q.** RRIRERPPRLPRPRPRPEFTPRP was tested. Which “shrunken log2 fold change” value did it give?
**A.** Its value is 0.0663.

**Q.** For RRIRIRPPRLPRPRPRPRVMPRP, which “shrunken log2 fold change” value is on record?
**A.** Its value is 0.0377.

**Q.** With RRIRFRPPRLPRPRPRPAFGPRP as the sequence, how does the “shrunken log2 fold change” value read?
**A.** The value was 0.21.

**Q.** Which “shrunken log2 fold change” value does the source give for RRIRLRPPRLPRPRPRPWSMPRP here?
**A.** The value was 0.202.

**Q.** RRIRTRPPRLPRPRPRPDQRPRP was tested. Which “shrunken log2 fold change” value did it give?
**A.** Its value is -0.0808.

**Q.** With RRIRNRPPRLPRPRPRPQSHPRP as the sequence, how does the “shrunken log2 fold change” value read?
**A.** Its value is -0.68.

**Q.** For RRIRCRPPRLPRPRPRPKPAPRP, which “shrunken log2 fold change” value is on record?
**A.** The value was 0.288.

**Q.** Which “shrunken log2 fold change” value does the source give for RRIRPRPPRLPRPRPRPDAAPRP here?
**A.** The value was 0.721.

**Q.** RRIRCRPPRLPRPRPRPQKGPRP was tested. Which “shrunken log2 fold change” value did it give?
**A.** Its value is -0.133.

**Q.** With RRIRWRPPRLPRPRPRPQFTPRP as the sequence, how does the “shrunken log2 fold change” value read?
**A.** Its value is -0.313.

**Q.** RRIRCRPPRLPRPRPRPDAKPRP was tested. Which “shrunken log2 fold change” value did it give?
**A.** Its value is 0.0864.

**Q.** Which “shrunken log2 fold change” value does the source give for RRIRERPPRLPRPRPRPCKYPRP here?
**A.** Its value is 3.12.

**Q.** With RRIRFRPPRLPRPRPRPISVPRP as the sequence, how does the “shrunken log2 fold change” value read?
**A.** The value was 0.0197.

**Q.** For RRIRTRPPRLPRPRPRPQWKPRP, which “shrunken log2 fold change” value is on record?
**A.** Its value is 0.0581.

**Q.** How did the “shrunken log2 fold change” value turn out when RRIRHRPPRLPRPRPRPGHKPRP was run?
**A.** Its value is 0.0956.

**Q.** For RRIRMRPPRLPRPRPRPFLLPRP, which “shrunken log2 fold change” value is on record?
**A.** Its value is -0.227.

**Q.** RRIRTRPPRLPRPRPRPKEGPRP was tested. Which “shrunken log2 fold change” value did it give?
**A.** The value was -0.0199.

**Q.** RRIRFRPPRLPRPRPRPENFPRP was tested. Which “shrunken log2 fold change” value did it give?
**A.** The value was 0.0164.

**Q.** RRIRRRPPRLPRPRPRPICAPRP was tested. Which “shrunken log2 fold change” value did it give?
**A.** The value was 0.127.

**Q.** For RRIRERPPRLPRPRPRPVTQPRP, which “shrunken log2 fold change” value is on record?
**A.** The value was -0.282.

**Q.** Which “shrunken log2 fold change” value does the source give for RRIRSRPPRLPRPRPRPFPPPRP here?
**A.** Its value is -0.0275.

**Q.** With RRIRDRPPRLPRPRPRPRLKPRP as the sequence, how does the “shrunken log2 fold change” value read?
**A.** The value was 0.411.

**Q.** For RRIRDRPPRLPRPRPRPWSWPRP, which “shrunken log2 fold change” value is on record?
**A.** The value was 0.215.

**Q.** Which “shrunken log2 fold change” value does the source give for RRIRARPPRLPRPRPRPTVSPRP here?
**A.** Its value is 0.136.

**Q.** Which “shrunken log2 fold change” value does the source give for RRIRIRPPRLPRPRPRPKPQPRP here?
**A.** Its value is 0.0958.

**Q.** RRIRDRPPRLPRPRPRPFDKPRP was tested. Which “shrunken log2 fold change” value did it give?
**A.** The value was -0.0665.

**Q.** For RRIRIRPPRLPRPRPRPSYRPRP, which “shrunken log2 fold change” value is on record?
**A.** The value was -0.0544.

**Q.** RRIRDRPPRLPRPRPRPSTKPRP was tested. Which “shrunken log2 fold change” value did it give?
**A.** The value was 0.116.

**Q.** RRIRARPPRLPRPRPRPRHLPRP was tested. Which “shrunken log2 fold change” value did it give?
**A.** Its value is 0.11.

**Q.** How did the “shrunken log2 fold change” value turn out when RRIRIRPPRLPRPRPRPTIHPRP was run?
**A.** The value was -0.592.

**Q.** How did the “shrunken log2 fold change” value turn out when RRIRARPPRLPRPRPRPVMDPRP was run?
**A.** The value was 0.671.

**Q.** RRIRIRPPRLPRPRPRPYSGPRP was tested. Which “shrunken log2 fold change” value did it give?
**A.** Its value is 0.00727.

**Q.** With RRIRRRPPRLPRPRPRPAYCPRP as the sequence, how does the “shrunken log2 fold change” value read?
**A.** Its value is 0.0506.
